Zeta potential of the mixture, measured and intensity-averaged zeta potential calculated assuming no interaction data for one molecule are collected here from US20250009896A1, “SUPR[…] BASED VIRAL […] CAPTURE FOR PREVENTION AND THERAPY OF VIRAL INFECTION” (The Johns Hopkins University, priority 2023, published 2025).

The target of assay [1] is T1, Recombinant human angiotensin-converting enzyme 2 (ACE2) protein, carrier-free (R&D Systems) (human), Q9BYF1.
The target of assay [2] is T1, Recombinant human …. As to the kind of experiment: calculated reference value for the zeta potential of the mixture.

T1 sequence (Q9BYF1 18-740 limits assumed): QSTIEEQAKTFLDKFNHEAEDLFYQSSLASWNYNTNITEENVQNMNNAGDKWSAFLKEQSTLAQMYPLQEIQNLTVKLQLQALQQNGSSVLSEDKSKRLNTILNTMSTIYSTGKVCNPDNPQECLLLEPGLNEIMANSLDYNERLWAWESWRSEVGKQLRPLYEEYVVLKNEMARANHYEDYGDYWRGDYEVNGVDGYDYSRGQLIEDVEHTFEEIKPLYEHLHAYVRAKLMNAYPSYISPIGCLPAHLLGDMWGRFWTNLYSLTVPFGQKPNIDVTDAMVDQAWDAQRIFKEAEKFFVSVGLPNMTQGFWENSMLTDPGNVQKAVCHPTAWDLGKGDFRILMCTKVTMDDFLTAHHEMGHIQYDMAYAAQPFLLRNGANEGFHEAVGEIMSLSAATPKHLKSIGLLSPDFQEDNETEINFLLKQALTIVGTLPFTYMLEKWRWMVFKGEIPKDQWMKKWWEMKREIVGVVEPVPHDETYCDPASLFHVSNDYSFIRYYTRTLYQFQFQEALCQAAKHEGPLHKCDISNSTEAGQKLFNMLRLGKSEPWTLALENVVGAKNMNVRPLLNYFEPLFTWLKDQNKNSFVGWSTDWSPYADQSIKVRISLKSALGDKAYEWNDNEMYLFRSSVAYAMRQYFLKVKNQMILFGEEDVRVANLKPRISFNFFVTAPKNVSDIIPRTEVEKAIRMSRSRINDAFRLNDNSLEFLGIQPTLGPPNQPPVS

On to VVVGKKGGYPKYPCTGSGSDGDELCGWYPHWPYR (modifications not checked) [sLigand peptide amphiphile (scrambled analog of Ligand)], for which the zeta potential of the mixture, measured in assay [1] was -19.2 mV. The intensity-averaged zeta potential calculated assuming no interaction in assay [2] was -19 mV.
